Assay [1] addresses mouse CSL (amino acid residues 53-474), conserved and structurally ordered core domain (mouse) (UniProt P31266). Description: ITC; CSL in the cell at 10 μM, RAM peptides in the syringe at 100 μM; 20 °C; 50 mM sodium phosphate, 150 mM sodium chloride; triplicate, 20 injections of 14 μl. In general terms: ITC needs no label: the signal is the heat of the interaction.
Assay [2] concerns the target mouse CSL (RBPJ), core domain 53-474 53-474 (UniProt P31266). Description: isothermal titration calorimetry. The conditions noted are these: reference: nonphosphorylated N3RAM peptide; sites S1672.

mouse CSL (amino acid residues 53-474), conserved and structurally ordered core domain (mouse), sequence (P31266 53-474): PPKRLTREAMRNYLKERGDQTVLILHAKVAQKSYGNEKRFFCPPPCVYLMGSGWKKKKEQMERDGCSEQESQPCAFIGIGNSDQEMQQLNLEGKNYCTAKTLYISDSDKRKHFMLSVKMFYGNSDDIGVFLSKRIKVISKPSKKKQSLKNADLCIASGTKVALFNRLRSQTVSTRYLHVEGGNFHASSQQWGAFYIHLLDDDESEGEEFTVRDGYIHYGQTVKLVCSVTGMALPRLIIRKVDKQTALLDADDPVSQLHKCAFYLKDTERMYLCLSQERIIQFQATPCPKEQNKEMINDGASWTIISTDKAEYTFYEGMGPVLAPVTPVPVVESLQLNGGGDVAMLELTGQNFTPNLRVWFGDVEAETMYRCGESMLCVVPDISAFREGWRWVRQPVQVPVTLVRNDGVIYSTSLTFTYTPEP

The Kd is the concentration at which binding is half-saturated. For the substance “human NOTCH3 RAM peptide (residues 1665-1682), nonphosphorylated”, the Kd in assay [1] turned out to be 187 nM.

Turning to “human NOTCH3 (N3RAM peptide) RAM domain, 1665-1682 (from UniProt Q9UM47) N3RAMpS1672 peptide”, the KD result in assay [2] was “lost; reference 0.187”.
